Data: paper PMC3799952 (Biochemistry, 2013)
Positions count from the first letter of the chain named. Names may count otherwise.

B1: amino terminus-truncated recombinant human aromatase, wild type (enzyme)
chain: MAKKTSSKGRNYEGTSSIPGPGYCMGIGPLISHGRFLWMGIGSACNYYNRVYGEFMRVWISGEETLIISKSSSMFHIMKHNHYSSRFGSKLGLQCIGMHEKGIIFNNNPELWKTTRPFFMKALSGPGLVRMVTVCAESLKTHLDRLEEVTNESGYVDVLTLLRRVMLDTSNTLFLRIPLDESAIVVKIQGYFDAWQALLIKPDIFFKISWLYKKYEKSVKDLKDAIEVLIAEKRRRISTEEKLEECMDFATELILAEKRGDLTRENVNQCILEMLIAAPDTMSVSLFFMLFLIAKHPNVEEAIIKEIQTVIGERDIKIDDIQKLKVMENFIYESMRYQPVVDLVMRKALEDDVIDGYPVKKGTNIILNIGRMHRLEFFPKPNEFTLENFAKNVPYRYFQPFGFGPRGCAGKYIAMVMMKAILVTLLRRFHVKTLQGQCVESIQKIHDLSLHPDETKNMLEMIFTPRNSDRCLEH
B2: rArom E181A (enzyme, human)
chain: B1 chain with E152A
B3: rArom E181K (enzyme, human)
chain: B1 chain with E152K

Biological target: the molecule itself
Assay: native gel or EMSA

Protein	stoichiometry N
B1	5
B2	2
B3	2
